In this assay the target is Human C3 (human, UniProt P01024 23-1663). As to the kind of experiment: cell-based or functional assay.

Positions of bridges follow the written chain, without caps; N, C: chain ends. Non-standard residues stand in square brackets, D forms with d. Trp(1-Me) = Cn1cc(C[C@H](N)C(=O)O)c2ccccc21; 1Nal = N[C@@H](Cc1cccc2ccccc12)C(=O)O; 2Nal = N[C@@H](Cc1ccc2ccccc2c1)C(=O)O; Sar = CNCC(=O)O

Chain of Human C3 (P01024 23-1663 limits assumed): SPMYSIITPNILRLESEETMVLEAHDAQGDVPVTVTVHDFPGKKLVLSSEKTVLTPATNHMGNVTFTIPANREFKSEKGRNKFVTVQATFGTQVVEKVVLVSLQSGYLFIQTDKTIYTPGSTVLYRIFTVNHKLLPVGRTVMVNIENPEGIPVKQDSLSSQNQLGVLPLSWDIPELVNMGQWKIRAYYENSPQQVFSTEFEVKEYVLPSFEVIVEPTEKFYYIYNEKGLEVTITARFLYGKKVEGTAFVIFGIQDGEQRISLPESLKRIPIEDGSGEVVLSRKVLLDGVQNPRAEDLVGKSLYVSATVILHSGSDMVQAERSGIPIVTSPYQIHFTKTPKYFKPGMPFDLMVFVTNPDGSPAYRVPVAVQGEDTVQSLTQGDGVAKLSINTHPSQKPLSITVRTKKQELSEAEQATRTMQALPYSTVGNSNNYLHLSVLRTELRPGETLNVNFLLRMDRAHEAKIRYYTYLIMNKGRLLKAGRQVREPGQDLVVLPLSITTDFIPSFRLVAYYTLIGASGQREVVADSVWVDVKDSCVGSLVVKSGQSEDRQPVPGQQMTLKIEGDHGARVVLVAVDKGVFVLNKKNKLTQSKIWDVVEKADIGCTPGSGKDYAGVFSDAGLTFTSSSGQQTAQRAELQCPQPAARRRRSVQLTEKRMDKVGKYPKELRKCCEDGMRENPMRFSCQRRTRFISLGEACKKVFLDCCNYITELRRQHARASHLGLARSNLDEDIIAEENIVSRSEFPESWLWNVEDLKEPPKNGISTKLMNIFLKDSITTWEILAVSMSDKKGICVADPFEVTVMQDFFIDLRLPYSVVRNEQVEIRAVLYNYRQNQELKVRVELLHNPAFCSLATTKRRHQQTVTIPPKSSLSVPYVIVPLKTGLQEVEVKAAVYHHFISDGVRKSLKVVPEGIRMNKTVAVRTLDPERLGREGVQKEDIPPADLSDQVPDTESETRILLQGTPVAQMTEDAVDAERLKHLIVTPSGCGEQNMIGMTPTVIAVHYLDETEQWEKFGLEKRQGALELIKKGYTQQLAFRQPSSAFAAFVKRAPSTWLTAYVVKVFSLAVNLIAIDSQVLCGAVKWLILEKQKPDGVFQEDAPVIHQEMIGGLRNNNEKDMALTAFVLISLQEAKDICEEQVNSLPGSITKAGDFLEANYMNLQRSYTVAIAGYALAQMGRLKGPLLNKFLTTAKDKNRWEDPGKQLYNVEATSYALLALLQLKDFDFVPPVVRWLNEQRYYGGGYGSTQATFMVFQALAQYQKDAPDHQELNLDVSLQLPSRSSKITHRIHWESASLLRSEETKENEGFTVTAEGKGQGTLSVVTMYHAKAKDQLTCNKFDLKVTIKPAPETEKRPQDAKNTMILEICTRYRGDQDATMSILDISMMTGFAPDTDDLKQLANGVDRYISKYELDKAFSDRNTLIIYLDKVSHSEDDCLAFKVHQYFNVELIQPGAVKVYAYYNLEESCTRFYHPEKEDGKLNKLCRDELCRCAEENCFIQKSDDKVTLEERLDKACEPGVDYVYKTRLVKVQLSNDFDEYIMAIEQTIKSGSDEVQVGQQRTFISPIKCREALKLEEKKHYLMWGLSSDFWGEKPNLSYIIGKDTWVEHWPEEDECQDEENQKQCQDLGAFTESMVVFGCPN

B1: Compound 41 (peptide)
peptide: Ac-SAICIWQDWGEHRC[Sar]E-NH2
modifications: disulfide 4-14
SMILES: CC[C@H](C)[C@H](NC(=O)[C@H](C)NC(=O)[C@H](CO)NC(C)=O)C(=O)N[C@H]1CSSC[C@@H](C(=O)N(C)CC(=O)N[C@@H](CCC(=O)O)C(N)=O)NC(=O)[C@H](CCCNC(=N)N)NC(=O)[C@H](Cc2c[nH]cn2)NC(=O)[C@H](CCC(=O)O)NC(=O)CNC(=O)[C@H](Cc2c[nH]c3ccccc23)NC(=O)[C@H](CC(=O)O)NC(=O)[C@H](CCC(N)=O)NC(=O)[C@H](Cc2c[nH]c3ccccc23)NC(=O)[C@H]([C@@H](C)CC)NC1=O
As for B1, the IC50[nM], inhibition of hemolysis is less than 250 nM.

B2: Compound 11 (peptide)
peptide: Ac-[Sar]CIWQDWGEHRCT-NH2
modifications: disulfide 2-12
SMILES: CC[C@H](C)[C@@H]1NC(=O)[C@@H](NC(=O)CN(C)C(C)=O)CSSC[C@@H](C(=O)N[C@H](C(N)=O)[C@@H](C)O)NC(=O)[C@H](CCCNC(=N)N)NC(=O)[C@H](Cc2c[nH]cn2)NC(=O)[C@H](CCC(=O)O)NC(=O)CNC(=O)[C@H](Cc2c[nH]c3ccccc23)NC(=O)[C@H](CC(=O)O)NC(=O)[C@H](CCC(N)=O)NC(=O)[C@H](Cc2c[nH]c3ccccc23)NC1=O
For the molecule B2, the IC50[nM], inhibition of hemolysis is less than 100 nM.

B3: Compound 57 (peptide)
peptide: Ac-EGSAFCI[Trp(1-Me)]QDWGEHRCTE-NH2
modifications: disulfide 6-16
SMILES: CC[C@H](C)[C@@H]1NC(=O)[C@@H](NC(=O)[C@H](Cc2ccccc2)NC(=O)[C@H](C)NC(=O)[C@H](CO)NC(=O)CNC(=O)[C@H](CCC(=O)O)NC(C)=O)CSSC[C@@H](C(=O)N[C@H](C(=O)N[C@@H](CCC(=O)O)C(N)=O)[C@@H](C)O)NC(=O)[C@H](CCCNC(=N)N)NC(=O)[C@H](Cc2c[nH]cn2)NC(=O)[C@H](CCC(=O)O)NC(=O)CNC(=O)[C@H](Cc2c[nH]c3ccccc23)NC(=O)[C@H](CC(=O)O)NC(=O)[C@H](CCC(N)=O)NC(=O)[C@H](Cc2cn(C)c3ccccc23)NC1=O
Take B3: the IC50[nM], inhibition of hemolysis was less than 100 nM.

B4: Ac-IC(1)X…(1)T-NH2 with Phenylalanine at position 3 (peptide)
peptide: Ac-ICFWQDWGEHRCT-NH2
modifications: disulfide 2-12
SMILES: CC[C@H](C)[C@H](NC(C)=O)C(=O)N[C@H]1CSSC[C@@H](C(=O)N[C@H](C(N)=O)[C@@H](C)O)NC(=O)[C@H](CCCNC(=N)N)NC(=O)[C@H](Cc2c[nH]cn2)NC(=O)[C@H](CCC(=O)O)NC(=O)CNC(=O)[C@H](Cc2c[nH]c3ccccc23)NC(=O)[C@H](CC(=O)O)NC(=O)[C@H](CCC(N)=O)NC(=O)[C@H](Cc2c[nH]c3ccccc23)NC(=O)[C@H](Cc2ccccc2)NC1=O
Molecule B4 showed an IC50, CP hemolysis greater than 10000 nM.

B5: Ac-IC(1)X…(1)T-NH2 with Leucine at position 3 (peptide)
peptide: Ac-ICLWQDWGEHRCT-NH2
modifications: disulfide 2-12
SMILES: CC[C@H](C)[C@H](NC(C)=O)C(=O)N[C@H]1CSSC[C@@H](C(=O)N[C@H](C(N)=O)[C@@H](C)O)NC(=O)[C@H](CCCNC(=N)N)NC(=O)[C@H](Cc2c[nH]cn2)NC(=O)[C@H](CCC(=O)O)NC(=O)CNC(=O)[C@H](Cc2c[nH]c3ccccc23)NC(=O)[C@H](CC(=O)O)NC(=O)[C@H](CCC(N)=O)NC(=O)[C@H](Cc2c[nH]c3ccccc23)NC(=O)[C@H](CC(C)C)NC1=O
Consider B5, for which the IC50, CP hemolysis was found to be 500 nM.

B6: Compound 64 (peptide)
peptide: Ac-FCI[2Nal]QDWGEHRCTGAES-NH2
modifications: disulfide 2-12
SMILES: CC[C@H](C)[C@@H]1NC(=O)[C@@H](NC(=O)[C@H](Cc2ccccc2)NC(C)=O)CSSC[C@@H](C(=O)N[C@H](C(=O)NCC(=O)N[C@@H](C)C(=O)N[C@@H](CCC(=O)O)C(=O)N[C@@H](CO)C(N)=O)[C@@H](C)O)NC(=O)[C@H](CCCNC(=N)N)NC(=O)[C@H](Cc2c[nH]cn2)NC(=O)[C@H](CCC(=O)O)NC(=O)CNC(=O)[C@H](Cc2c[nH]c3ccccc23)NC(=O)[C@H](CC(=O)O)NC(=O)[C@H](CCC(N)=O)NC(=O)[C@H](Cc2ccc3ccccc3c2)NC1=O
Molecule B6 registered an IC50[nM], inhibition of hemolysis of less than 100 nM.

B7: Compound 52 (peptide)
peptide: Ac-ICI[2Nal]QDWGEHRCTGAES-NH2
modifications: disulfide 2-12
SMILES: CC[C@H](C)[C@H](NC(C)=O)C(=O)N[C@H]1CSSC[C@@H](C(=O)N[C@H](C(=O)NCC(=O)N[C@@H](C)C(=O)N[C@@H](CCC(=O)O)C(=O)N[C@@H](CO)C(N)=O)[C@@H](C)O)NC(=O)[C@H](CCCNC(=N)N)NC(=O)[C@H](Cc2c[nH]cn2)NC(=O)[C@H](CCC(=O)O)NC(=O)CNC(=O)[C@H](Cc2c[nH]c3ccccc23)NC(=O)[C@H](CC(=O)O)NC(=O)[C@H](CCC(N)=O)NC(=O)[C@H](Cc2ccc3ccccc3c2)NC(=O)[C@H]([C@@H](C)CC)NC1=O
In turn, B7 showed an IC50[nM], inhibition of hemolysis of less than 100 nM.

B8: Compound 40 (peptide)
peptide: Ac-GSAICIWQDWGEHRC[Sar]E-NH2
modifications: disulfide 5-15
SMILES: CC[C@H](C)[C@H](NC(=O)[C@H](C)NC(=O)[C@H](CO)NC(=O)CNC(C)=O)C(=O)N[C@H]1CSSC[C@@H](C(=O)N(C)CC(=O)N[C@@H](CCC(=O)O)C(N)=O)NC(=O)[C@H](CCCNC(=N)N)NC(=O)[C@H](Cc2c[nH]cn2)NC(=O)[C@H](CCC(=O)O)NC(=O)CNC(=O)[C@H](Cc2c[nH]c3ccccc23)NC(=O)[C@H](CC(=O)O)NC(=O)[C@H](CCC(N)=O)NC(=O)[C@H](Cc2c[nH]c3ccccc23)NC(=O)[C@H]([C@@H](C)CC)NC1=O
Consider B8, for which the IC50[nM], inhibition of hemolysis is less than 250 nM.

B9: Compound 44 (peptide)
peptide: Ac-EGSAICIWQDWGEHRC[Sar]EGE-NH2
modifications: disulfide 6-16
SMILES: CC[C@H](C)[C@H](NC(=O)[C@H](C)NC(=O)[C@H](CO)NC(=O)CNC(=O)[C@H](CCC(=O)O)NC(C)=O)C(=O)N[C@H]1CSSC[C@@H](C(=O)N(C)CC(=O)N[C@@H](CCC(=O)O)C(=O)NCC(=O)N[C@@H](CCC(=O)O)C(N)=O)NC(=O)[C@H](CCCNC(=N)N)NC(=O)[C@H](Cc2c[nH]cn2)NC(=O)[C@H](CCC(=O)O)NC(=O)CNC(=O)[C@H](Cc2c[nH]c3ccccc23)NC(=O)[C@H](CC(=O)O)NC(=O)[C@H](CCC(N)=O)NC(=O)[C@H](Cc2c[nH]c3ccccc23)NC(=O)[C@H]([C@@H](C)CC)NC1=O
Take B9: the IC50[nM], inhibition of hemolysis was less than 250 nM.

B10: Compound 60 (peptide)
peptide: Ac-EGSAFCI[2Nal]QDWGEHRCTE-NH2
modifications: disulfide 6-16
SMILES: CC[C@H](C)[C@@H]1NC(=O)[C@@H](NC(=O)[C@H](Cc2ccccc2)NC(=O)[C@H](C)NC(=O)[C@H](CO)NC(=O)CNC(=O)[C@H](CCC(=O)O)NC(C)=O)CSSC[C@@H](C(=O)N[C@H](C(=O)N[C@@H](CCC(=O)O)C(N)=O)[C@@H](C)O)NC(=O)[C@H](CCCNC(=N)N)NC(=O)[C@H](Cc2c[nH]cn2)NC(=O)[C@H](CCC(=O)O)NC(=O)CNC(=O)[C@H](Cc2c[nH]c3ccccc23)NC(=O)[C@H](CC(=O)O)NC(=O)[C@H](CCC(N)=O)NC(=O)[C@H](Cc2ccc3ccccc3c2)NC1=O
As for B10, the IC50[nM], inhibition of hemolysis was less than 100 nM.

B11: Compound 45 (peptide)
peptide: Ac-EGSAFCIWQDWGEHRC[Sar]E-NH2
modifications: disulfide 6-16
SMILES: CC[C@H](C)[C@@H]1NC(=O)[C@@H](NC(=O)[C@H](Cc2ccccc2)NC(=O)[C@H](C)NC(=O)[C@H](CO)NC(=O)CNC(=O)[C@H](CCC(=O)O)NC(C)=O)CSSC[C@@H](C(=O)N(C)CC(=O)N[C@@H](CCC(=O)O)C(N)=O)NC(=O)[C@H](CCCNC(=N)N)NC(=O)[C@H](Cc2c[nH]cn2)NC(=O)[C@H](CCC(=O)O)NC(=O)CNC(=O)[C@H](Cc2c[nH]c3ccccc23)NC(=O)[C@H](CC(=O)O)NC(=O)[C@H](CCC(N)=O)NC(=O)[C@H](Cc2c[nH]c3ccccc23)NC1=O
For the molecule B11, the IC50[nM], inhibition of hemolysis was less than 100 nM.

B12: Compound 58 (peptide)
peptide: Ac-EGSAFCI[Trp(1-Me)]QDWGEHRCEGE-NH2
modifications: disulfide 6-16
SMILES: CC[C@H](C)[C@@H]1NC(=O)[C@@H](NC(=O)[C@H](Cc2ccccc2)NC(=O)[C@H](C)NC(=O)[C@H](CO)NC(=O)CNC(=O)[C@H](CCC(=O)O)NC(C)=O)CSSC[C@@H](C(=O)N[C@@H](CCC(=O)O)C(=O)NCC(=O)N[C@@H](CCC(=O)O)C(N)=O)NC(=O)[C@H](CCCNC(=N)N)NC(=O)[C@H](Cc2c[nH]cn2)NC(=O)[C@H](CCC(=O)O)NC(=O)CNC(=O)[C@H](Cc2c[nH]c3ccccc23)NC(=O)[C@H](CC(=O)O)NC(=O)[C@H](CCC(N)=O)NC(=O)[C@H](Cc2cn(C)c3ccccc23)NC1=O
Consider B12, for which the IC50[nM], inhibition of hemolysis was less than 100 nM.

B13: Compound 56 (peptide)
peptide: Ac-EGSAFCI[1Nal]QDWGEHRCTE-NH2
modifications: disulfide 6-16
SMILES: CC[C@H](C)[C@@H]1NC(=O)[C@@H](NC(=O)[C@H](Cc2ccccc2)NC(=O)[C@H](C)NC(=O)[C@H](CO)NC(=O)CNC(=O)[C@H](CCC(=O)O)NC(C)=O)CSSC[C@@H](C(=O)N[C@H](C(=O)N[C@@H](CCC(=O)O)C(N)=O)[C@@H](C)O)NC(=O)[C@H](CCCNC(=N)N)NC(=O)[C@H](Cc2c[nH]cn2)NC(=O)[C@H](CCC(=O)O)NC(=O)CNC(=O)[C@H](Cc2c[nH]c3ccccc23)NC(=O)[C@H](CC(=O)O)NC(=O)[C@H](CCC(N)=O)NC(=O)[C@H](Cc2cccc3ccccc23)NC1=O
In the case of B13, the IC50[nM], inhibition of hemolysis was less than 100 nM.

B14: Compound 59 (peptide)
peptide: Ac-EGSAYCI[Trp(1-Me)]QDWGEHRCTE-NH2
modifications: disulfide 6-16
SMILES: CC[C@H](C)[C@@H]1NC(=O)[C@@H](NC(=O)[C@H](Cc2ccc(O)cc2)NC(=O)[C@H](C)NC(=O)[C@H](CO)NC(=O)CNC(=O)[C@H](CCC(=O)O)NC(C)=O)CSSC[C@@H](C(=O)N[C@H](C(=O)N[C@@H](CCC(=O)O)C(N)=O)[C@@H](C)O)NC(=O)[C@H](CCCNC(=N)N)NC(=O)[C@H](Cc2c[nH]cn2)NC(=O)[C@H](CCC(=O)O)NC(=O)CNC(=O)[C@H](Cc2c[nH]c3ccccc23)NC(=O)[C@H](CC(=O)O)NC(=O)[C@H](CCC(N)=O)NC(=O)[C@H](Cc2cn(C)c3ccccc23)NC1=O
The molecule B14 displayed an IC50[nM], inhibition of hemolysis of less than 100 nM.

The values are drawn from patent publication US20220306695A1, “COMPSTATIN ANALOGUES AND THEIR MEDICAL USES” (priority 2019, published 2022).
